Target: HSP70 protein (UniProt P0DMV8 1-641)
Assay: SPR

HSP70 protein, sequence (P0DMV8 whole entry): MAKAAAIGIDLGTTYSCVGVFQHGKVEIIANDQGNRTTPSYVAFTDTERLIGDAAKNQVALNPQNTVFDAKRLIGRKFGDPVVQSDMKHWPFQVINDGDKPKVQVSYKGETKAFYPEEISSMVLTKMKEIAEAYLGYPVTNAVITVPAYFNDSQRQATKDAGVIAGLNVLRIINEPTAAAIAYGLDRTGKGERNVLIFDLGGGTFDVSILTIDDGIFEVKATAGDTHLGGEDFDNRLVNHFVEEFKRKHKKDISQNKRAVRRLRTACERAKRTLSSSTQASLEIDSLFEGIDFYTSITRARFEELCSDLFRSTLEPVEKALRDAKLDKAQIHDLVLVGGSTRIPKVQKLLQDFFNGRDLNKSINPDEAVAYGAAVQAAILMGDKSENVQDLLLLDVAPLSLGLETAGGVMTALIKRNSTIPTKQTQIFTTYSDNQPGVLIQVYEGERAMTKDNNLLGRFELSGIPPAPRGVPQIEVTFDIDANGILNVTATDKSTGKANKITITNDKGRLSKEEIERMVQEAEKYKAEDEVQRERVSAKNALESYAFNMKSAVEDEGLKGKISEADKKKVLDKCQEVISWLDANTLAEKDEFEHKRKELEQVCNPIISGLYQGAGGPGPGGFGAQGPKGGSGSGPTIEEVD

Kd: 0.479 nM
B1: AIMP2-DX2 protein (other)
chain: MPMYQVKPYHGGGAPLRVELPTCMYRLPNVHGRSYGPAPGAGHVQDYGALKDIVINANPASPPLSLLVLHRLLCEHFRVLSTVHTHSSVKSVPENLLKCFGEQNKKQPRQDYQLGFTLIWKNVPKTQMKFSIQTMCPIEGEGNIARFLFSLFGQKHNAVNATLIDSWVDIAIFQLKEGSSKEKAAVFRSMNSALGKSPWLAGNELTVADVVLWSVLQQIGGCSVTVPANVQRWMRSCENLAPFNTALKLLK
